This assay deals with Litopenaeus vannamei IRF, endogenous in shrimp tissues (Litopenaeus vannamei (endogenous in intestines and hepatopancreas)). Description: native gel or EMSA; native-PAGE of shrimp tissue samples (intestines, hepatopancreas; hemocytes as negative control) with western-blot, beta-actin as control; also hepatopancreas at times after WSSV or poly (I:C) treatment. Background: Mobility shift assays separate free from complexed probe on a gel.

As for “Litopenaeus vannamei IRF, endogenous in shrimp tissues (natural protein)”, the stoichiometry N (as a rule, the number of molecules, sites or subunits per partner or assembly) amounted to 2.

For the origin of these results see paper PMC4602278.
